Assay: soluble on expression in E. coli; label from the status in PepcDB or PDB records

Sequence	soluble on expression in E. coli
MGSDKIHHHHHHMRSNNNNPLTRDEILSRYFPQYRPAVATSQGLSGGSCIIAHDTHRVVLRRHHDPDAPPAHFLRHYRALSQLPASLAPRALFYTPGWMAVEYLHGVVNSALPDADELAALLYHLHQQPRFGWRIALSPLLAQYWSCCDPARRTPFWLRRLKQLQKNGEPRPLRLAPLHMDVHGDNIVLTSAGLRLIDWEYAGDGDIALELAAVWVEDERQHRQLADAYAARARIDARQLWRQIRLWHPWVIMLKAGWFEYRWRQTGEQQFIRLADETWRQLRMKG	not soluble
MAKTYKKIGEETKVIEATEPLTILLMGVDTGNVERTETWVGRSDSMILMTVNPKTKKTTMMSLERDILTRIESGNGQAHEAKLNSAYADGGAELAIETIQKMMNIHIDRYVMVNMRGLQKLVDAVGGITVNNILGFPISISDQEEFNTISIGVGEQHIGGEEALVYARMRYQDPEGDYGRQKRQREVIQKVMEKALSLNSIGHYQEILKALSDNMQTNIDLSAKSIPNLLGYKDSFKTIETQQLQGEGEILQGVSYQIVSRAHMLEMQNILRRSLGQEEVTQLETNAVLFEDLFGRAPVGDEDNLEHHHHHH	soluble
MSLASIDFRNKINWHRRYRSPQGVKTEHEILRIFESDRGRIINSPAIRRLQQKTQVFPLERNAAVRTRLTHSMEVQQVGRYIAKEILSRLKEQDRLEEYGLDALTGPFESIVEMACLMHDIGNPPFGHFGEAAINDWFRQRLHPEDAESQPLTHDRCVVSSLRLQEGEENLNDIRRKVRQDICHFEGNAQGIRLVHTLMRMNLTWAQVGGILKYTRPAWWRGPVPDSHRYLMKKPGYYLSEEKYIARLRKELQLAPYSRFPLTWIMEAADDISYCVADLEDAVEKRIFSVEQLYHHLYHAWCHHEKDSLFELVVGNAWEKSRANTLSRSTEDQFFMYLRVNTLNKLVPYAAQRFIDNLPQIFAGTFNQALLEDASGFSRLLELYKNVAVEHVFSHPDVEQLELQGYRVISGLLDIYQPLLSLSLNDFRELVEKERLKRFPIESRLFQKLSTRHRLAYVEVVSKLPTDSAEYPVLEYYYRCRLIQDYISGMTDLYAWDEYRRLMAVEQEGHHHHHH	soluble
GPGSMLRSEVLDAEVAKSVEAYSTAVTPFVERRSGLYLTKFEVARIIGERAKQIASGAAMSLPGTGSGLDSVETAERCTNPRSLAVDPVMMAKYDLLQRKIRMLVRRVWPDGAVETIPVNELMVDVTMLDLQY	soluble
EVPDLPEEPSETAEEVVTVALRCPNGRVLRRRFFKSWNSQVLLDWMMKVGYHKSLYRLSTSFPRRALEVEGGSSLEDIGITVDTVLNVEEKEQSSQ	soluble
QNSPQDYLAVHNDARAQVGVGPMSWDANLASRAQNYANSRAGDCNLIHSGAGENLAKGGGDFTGRAAVQLWVSERPSYNYATNQCVGGKKCRHYTQVVWRNSVRLGCGRARCNNGWWFISCNYDPVGNWIGQRPY	soluble
GLIDSHVHPVVGDYTPRQQQLHWIDSTLHGGVTTLISAGEVHMPGRPKDIVGLKAMAIAAQRWYENFRPSGVKVMAGAPVIEHGMVEQDFKELADAGVKLLGEVGLGTVKDGKTARQMVDWARKYGIQSTIHTGGPSIPGSGLIDADMVLETGTDVIGHINGGHSALPDDQIMCLCESCTAGLEIVHNGNERAALLTLNTARELKQMDRIILGTDGPAGSGVQPLGILRMVAMLSALGNVPAEIAFCFANGNTARQRELDTGLLERGYAADFVLMDQAQHAPGKTILESVQLGNLPGVGMTVIDGVVCSERSRNTPPATRLPRIVS	not soluble
MGSDKIHHHHHHMDCFYDYHKSLSPDEYVWDYEEFLYYGSDKFIKDVFVDGGVDIALSQPAYLQFFFREPFGNTNEFGTMALKYPYRFIIGTRWDPREGEEGKRQLEEDVRKYRVKPWQMRHVKLYTAEWKEVNGGISRGWRLDSPQAFEFLEFNRELGIDIQVPHKGPTVWPLSKDAFDVHDVDTAASSFPELRFVVTHVGLPRIDDFSWIGVQDKNVYAGLAVATAFIRKRPKYFAEIMAELLFWLGPDRIIFGSDYAIWHPKWIIEDFIKFELPRDLESEYGVELTLENKKKILGENAARLWGIDVEEAKKAVREDQIASRYGAKPRVFKVEG	not soluble

From the DeepSol protein solubility set
